These are literature values, as cited in paper PMC7570734.

Where two headings read alike, the source gives them in different places. A value given as a limit tells only on which side of the number the result lay.

For data set [1], the target named is alpha-factor (Saccharomyces cerevisiae) (UniProt P01149).
Data set [2] has the same target. The source holds these as a separate data set.

As a reminder, the Kd is the concentration at which binding is half-saturated. For Ste2p (from UniProt D6VTK4), the Kd in data set [1] is > 150 nM; in data set [2] it was 17 nM.
